Test results: the supplement of paper PMC9233669
Fewer inactive variants are shown than the library holds.

Key:
biotinyl-Phe-oxazolone = assay: self-aminoacylation, catalytic enhancement (BFO) (fold over background); higher = more active; k-Seq, kA / k0A0; sequences stand for … in GGGAAUGGAUCCACAUCUACGAAUUC…UUCACUGCAGACUUGACGAAGCUG
Method in brief: (§1)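 The uncatalyzed rate is the low-activity peak of a bimodal Gaussian fit, and catalytic enhancement is median kA divided by it. The kA values came from pseudo-first-order fits, with 1000 bootstraps, of per-sequence fraction reacted measured by streptavidin capture, triplicate qPCR and Illumina sequencing. Mutagenized RNA pools with a 21-nt variable region (0.43 μM) were reacted with each biotinyl-aminoacyl-oxazolone at 2–1250 μM in 50 μL HEPES/NaCl/KCl/MgCl2/CaCl2 buffer with 5% acetonitrile, pH 6.9–7.0, for 90 minutes at room temperature.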

biotinyl-Leu-oxazolone = assay: self-aminoacylation, catalytic enhancement (BLO) (fold over background); higher = more active; k-Seq, kA / k0A0; sequences stand for … in GGGAAUGGAUCCACAUCUACGAAUUC…UUCACUGCAGACUUGACGAAGCUG
Method in brief: as §1

biotinyl-Trp-oxazolone = assay: self-aminoacylation, catalytic enhancement (BWO) (fold over background); higher = more active; k-Seq, kA / k0A0; sequences stand for … in GGGAAUGGAUCCACAUCUACGAAUUC…UUCACUGCAGACUUGACGAAGCUG
Method in brief: as §1

Row | Sequence | self-aminoacylation (biotinyl-Phe-oxazolone) | self-aminoacylation (biotinyl-Leu-oxazolone) | self-aminoacylation (biotinyl-Trp-oxazolone)
1 | AAGUUAGCUAAAAGUCGCAAG [Fam3.1 aminoacylation ribozyme variant] | 2.41 | 2.01 | 
2 | AAGUUGGCUAAUUGUCGCAAG [Fam3.1 aminoacylation ribozyme variant] | 2.94 | 2.41 | 2.71
3 | ACCUUUGCUAAUAGUCGCAAG [Fam3.1 aminoacylation ribozyme variant] | 2.02 | 2.31 | 2.06
4 | AUUACCCUGGUCAUCGUGCGA [Fam2.1 aminoacylation ribozyme variant] | 9.74 | 2.14 | 2.28
5 | AUUACCCUGGUCGUCGAGCGA [Fam2.1 aminoacylation ribozyme variant] | 3.35 | 2.17 | 
6 | AUUCACAUAGGUCGUCGGGUG [Fam2.2 aminoacylation ribozyme variant] | 7.92 | 2.07 | 
7 | AUUCACCUAGUUCAUCGGGGG [Fam2.2 aminoacylation ribozyme variant] | 6.17 | 2.23 | 
8 | AUUCACUUAGGUCAUAGGGUG [Fam2.2 aminoacylation ribozyme variant] | 3.24 | 2.08 | 
9 | CAACUUCAAACAAUCGGUCUG [Fam1A.1 aminoacylation ribozyme variant] | 97.7 | 2.61 | 44.8
10 | CACCUUCAAACAAUCGGUCUG [Fam1A.1 aminoacylation ribozyme variant] | 98.1 | 2.61 | 43.9
11 | CAGUUUGCUAAUAGUCGCAUG [Fam3.1 aminoacylation ribozyme variant] | 2.84 | 2.08 | 2.07
12 | CCACACUUCAGCCAAUCGGUC [Fam1B.1 aminoacylation ribozyme variant] |  | 2.27 | 2.11
13 | CCACUUCAAACAAUCGGUCUU [Fam1A.1 aminoacylation ribozyme variant] | 40.9 | 2.11 | 25.2
14 | CCACUUCAAAUAAUCGGUCUG [Fam1A.1 aminoacylation ribozyme variant] | 17.9 |  | 15.2
15 | CCAGACUUCAAGGAAUCGGUC [Fam1B.1 aminoacylation ribozyme variant] | 6.35 |  | 5.9
16 | CCAUACUUCAAACAAUCGGUC [Fam1B.1 aminoacylation ribozyme variant] | 66.4 |  | 30.3
17 | CCCCACUUAAAGCAAUCGGUC [Fam1B.1 aminoacylation ribozyme variant] | 2.09 |  | 2.05
18 | CCCCACUUCAAUCAAUCGGUC [Fam1B.1 aminoacylation ribozyme variant] | 37.1 | 2.28 | 31
19 | CCCCACUUCUAGCAAUCGGUC [Fam1B.1 aminoacylation ribozyme variant] | 2.55 |  | 2.23
20 | CCCCACUUUAAGCAAUCGGUC [Fam1B.1 aminoacylation ribozyme variant] | 2.4 |  | 2.1

Row | Sequence | self-aminoacylation (biotinyl-Phe-oxazolone) | self-aminoacylation (biotinyl-Leu-oxazolone) | self-aminoacylation (biotinyl-Trp-oxazolone)
21 | CCUCUCUUCAAGCAAUCGGUC [Fam1B.1 aminoacylation ribozyme variant] | 36.3 |  | 20
22 | CGACCCUUCAAGCAAUCGGUC [Fam1B.1 aminoacylation ribozyme variant] | 3.2 |  | 3.13
23 | CGACUUCAAACAAUCGGUCUA [Fam1A.1 aminoacylation ribozyme variant] | 12.7 |  | 6.02
24 | CGACUUCAAACAAUCGGUCUG [Fam1A.1 aminoacylation ribozyme variant] | 102 | 2.66 | 44.4
25 | CUACACUUCAAGCAAUCGGUC [Fam1B.1 aminoacylation ribozyme variant] | 54.5 |  | 22.8
26 | CUACACUUCAAUCAAUCGGUC [Fam1B.1 aminoacylation ribozyme variant] | 37.4 |  | 18.5
27 | CUACAGUUCAAGCAAUCGGUC [Fam1B.1 aminoacylation ribozyme variant] | 4.84 |  | 2.96
28 | CUACUUACAACAAUCGGUCUG [Fam1A.1 aminoacylation ribozyme variant] | 3.29 |  | 2.34
29 | CUACUUCAAACAAUCGGUCAC [Fam1A.1 aminoacylation ribozyme variant] | 23.1 |  | 8.51
30 | CUACUUCAAACAAUCGGUCAG [Fam1A.1 aminoacylation ribozyme variant] | 16.7 |  | 7.09
31 | CUACUUCAAACAAUCGGUCGU [Fam1A.1 aminoacylation ribozyme variant] | 16.3 |  | 10.3
32 | CUACUUCAAACAAUCGGUCUU [Fam1A.1 aminoacylation ribozyme variant] | 31.2 |  | 15.3
33 | CUACUUCAAACAAUCGGUUUC [Fam1A.1 aminoacylation ribozyme variant] | 4.72 |  | 2.18
34 | CUACUUCAAACAAUCUCUCUG [Fam1A.1 aminoacylation ribozyme variant] | 10.1 |  | 4.21
35 | CUACUUCAAAUAAUCGGUUUG [Fam1A.1 aminoacylation ribozyme variant] | 16 |  | 8.58
36 | CUACUUCAACCAAUCGGUUUG [Fam1A.1 aminoacylation ribozyme variant] | 17 |  | 10.8
37 | CUAGUUCAAACAAUCGGUCUG [Fam1A.1 aminoacylation ribozyme variant] | 11 |  | 6.47
38 | CUAGUUCAAACAAUCGGUUUG [Fam1A.1 aminoacylation ribozyme variant] | 4.59 |  | 3.41
39 | CUAGUUCAAUCAAUCGGUCUG [Fam1A.1 aminoacylation ribozyme variant] | 3.97 |  | 2.63
40 | CUAGUUCCAACAAUCGGUCUG [Fam1A.1 aminoacylation ribozyme variant] | 9.79 |  | 9.72

Row | Sequence | self-aminoacylation (biotinyl-Phe-oxazolone) | self-aminoacylation (biotinyl-Leu-oxazolone) | self-aminoacylation (biotinyl-Trp-oxazolone)
41 | CUCCCUCAAACAAUCGGUCUG [Fam1A.1 aminoacylation ribozyme variant] | 3.26 |  | 3.48
42 | CUCCUUCAAAGAAUCGGUCUG [Fam1A.1 aminoacylation ribozyme variant] | 6.59 |  | 5.66
43 | CUGGUUCAAACAAUCGGUCUG [Fam1A.1 aminoacylation ribozyme variant] | 14 |  | 9.11
44 | CUUCUUCAAACAAUCGGUCUA [Fam1A.1 aminoacylation ribozyme variant] | 11.4 |  | 4.8
45 | GCACACUUCAAGCAAUCAGUC [Fam1B.1 aminoacylation ribozyme variant] | 9.69 |  | 4.94
46 | GCACACUUCAAGCAAUCGGUC [Fam1B.1 aminoacylation ribozyme variant] | 32.3 |  | 19.8
47 | GCACAUUUCAAGCAAUCGGUC [Fam1B.1 aminoacylation ribozyme variant] | 3.69 |  | 3.16
48 | GUACUUCAAACAAUCGGUCCG [Fam1A.1 aminoacylation ribozyme variant] | 6.11 |  | 3.6
49 | UAGUUUGCUAAUAGUCGGAAG [Fam3.1 aminoacylation ribozyme variant] | 6.04 |  | 2.37
50 | UAGUUUGCUAAUAGUCGUAAG [Fam3.1 aminoacylation ribozyme variant] | 17.9 |  | 4.18
51 | UAGUUUGUUAAUAGUCGCAAG [Fam3.1 aminoacylation ribozyme variant] | 3.23 | 2.05 | 
52 | UCACACUUCAAGGAAUCGGUC [Fam1B.1 aminoacylation ribozyme variant] | 5.43 |  | 3.91
53 | UCAUACUUCAAGCAAUCGGUC [Fam1B.1 aminoacylation ribozyme variant] | 16.9 |  | 9.74
54 | UUAAUUCAAACAAUCGGUCUG [Fam1A.1 aminoacylation ribozyme variant] | 3.57 |  | 2.47
55 | UUACUUCAAACAAUCAGUCUG [Fam1A.1 aminoacylation ribozyme variant] | 20.1 |  | 9.66
56 | UUACUUCAAACAAUCGGUCUA [Fam1A.1 aminoacylation ribozyme variant] | 6.02 |  | 2.61
57 | UUACUUCAAAUAAUCGGUCUG [Fam1A.1 aminoacylation ribozyme variant] | 10.3 |  | 7.5
58 | UUUCUUCAAACAAUCGGUCUG [Fam1A.1 aminoacylation ribozyme variant] | 7.67 |  | 5.16
